Test results taken from patent publication US20190360025A1.

What was measured:
[1] = biological target: macrophage migration inhibitory factor (MIF), R&D Systems 289-MF-002 (UniProt P14174); assay: c-PLA, buffer; MIF 3.00E-07 M
[2] = biological target: macrophage migration inhibitory factor (MIF), R&D Systems 289-MF-002 (UniProt P14174); assay: c-PLA, buffer; MIF 1.00E-10 M
[3] = biological target: macrophage migration inhibitory factor (MIF), R&D Systems 289-MF-002 (UniProt P14174); assay: c-PLA, buffer; MIF 1.00E-11 M
[4] = biological target: macrophage migration inhibitory factor (MIF), R&D Systems 289-MF-002 (UniProt P14174); assay: t-PLA, buffer; MIF 1.00E-07 M
[5] = biological target: macrophage migration inhibitory factor (MIF), R&D Systems 289-MF-002 (UniProt P14174); assay: t-PLA, buffer; MIF 3.00E-07 M
[6] = biological target: macrophage migration inhibitory factor (MIF), R&D Systems 289-MF-002 (UniProt P14174); assay: c-PLA, buffer; MIF 1.00E-07 M
[7] = biological target: macrophage migration inhibitory factor (MIF), R&D Systems 289-MF-002 (UniProt P14174); assay: t-PLA, buffer; MIF 1.00E-10 M
[8] = biological target: macrophage migration inhibitory factor (MIF), R&D Systems 289-MF-002 (UniProt P14174); assay: c-PLA, buffer; MIF 1.00E-09 M
[9] = biological target: macrophage migration inhibitory factor (MIF), R&D Systems 289-MF-002 (UniProt P14174); assay: SPR (Biacore T200), biotinylated antibody on CAP chip, 1:1 fit
[10] = biological target: macrophage migration inhibitory factor (MIF), R&D Systems 289-MF-002 (UniProt P14174); assay: t-PLA, buffer; MIF 1.00E-08 M
[11] = biological target: macrophage migration inhibitory factor (MIF), R&D Systems 289-MF-002 (UniProt P14174); assay: SPR, isoaffinity graph
[12] = biological target: macrophage migration inhibitory factor (MIF), R&D Systems 289-MF-002 (UniProt P14174); assay: t-PLA, buffer; MIF 1.00E-09 M
[13] = biological target: macrophage migration inhibitory factor (MIF), R&D Systems 289-MF-002 (UniProt P14174); assay: SPR (Biacore T200), 1:1 global fit
[14] = biological target: macrophage migration inhibitory factor (MIF), R&D Systems 289-MF-002 (UniProt P14174); assay: BLI (Octet RED), antibody on protein G sensors, 1:1 global fit
[15] = biological target: macrophage migration inhibitory factor (MIF), R&D Systems 289-MF-002 (UniProt P14174); assay: c-PLA, buffer; MIF 1.00E-08 M
[16] = biological target: macrophage migration inhibitory factor (MIF), R&D Systems 289-MF-002 (UniProt P14174); assay: t-PLA, buffer; MIF 1.00E-11 M

Chain of UniProt P14174 (P14174 whole entry): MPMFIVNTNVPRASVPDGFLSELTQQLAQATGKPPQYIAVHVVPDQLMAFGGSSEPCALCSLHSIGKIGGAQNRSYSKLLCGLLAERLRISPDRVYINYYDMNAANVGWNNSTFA

Substance: affinity-purified polyclonal anti-MIF antibody (R&D Systems AF-289-PB)
- Counts [1]: 36900
- SBR [1]: 2170
- Counts [2]: 1020
- SBR [2]: 60
- Counts [3]: 96.6
- SBR [3]: 5.7
- Counts [4]: 5.2e+07
- SBR [4]: 27
- Counts [5]: 4.66e+07
- SBR [5]: 24
- Counts [6]: 39600
- SBR [6]: 2330
- Counts [7]: 1.84e+06
- SBR [7]: 1
- Counts [8]: 12300
- SBR [8]: 724
- Kd [9]: 0.083 nM
- koff [9]: 9.4e-05 s⁻¹
- kon [9]: 1.1e+06 M⁻¹ s⁻¹
- Counts [10]: 3.97e+07
- SBR [10]: 21
- Kd [11]: > 0.05 nM
- Counts [12]: 1.43e+07
- SBR [12]: 7
- Kd [13]: 0.0826 nM
- koff [13]: 9.41e-05 s⁻¹
- kon [13]: 1.14e+06 M⁻¹ s⁻¹
- Kd [14]: 1.75 nM
- koff [14]: 0.000532 s⁻¹
- kon [14]: 304000 M⁻¹ s⁻¹
- Counts [15]: 29800
- SBR [15]: 1750
- Counts [16]: 681000
- SBR [16]: 0.4
